± gives the standard deviation.
Test: collision cross section of modified peptide (TIMS, N2, iRT-aligned); higher = larger / more extended gas-phase ion
Protocol: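 1/K0 was aligned run-wise to spiked iRT peptides and converted to CCS in N2 (Mason-Schamp). Values are the mean of 1-3 technical replicates for the most abundant feature at each charge state.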

[1] = charge state: 2, modification: Succinyl
[2] = charge state: 2, modification: Trimethyl (K)
[3] = charge state: 3, modification: Trimethyl (K)
[4] = charge state: 2, modification: hydroxyisobutyryl
[5] = charge state: 2, modification: Acetyl (K)
[6] = charge state: 2, modification: Biotin
[7] = charge state: 2, modification: Butyryl
[8] = charge state: 2, modification: Crotonyl
[9] = charge state: 2, modification: Dimethyl (K)
[10] = charge state: 3, modification: Dimethyl (K)
[11] = charge state: 2, modification: Formyl
[12] = charge state: 2, modification: Glutarylation
[13] = charge state: 2, modification: GlyGly (K)
[14] = charge state: 3, modification: GlyGly (K)
[15] = charge state: 2, modification: Malonyl
[16] = charge state: 2, modification: Methyl (K)
[17] = charge state: 3, modification: Methyl (K)
[18] = charge state: 3, modification: Biotin
[19] = charge state: 2, modification: HexNAc (ST)

Sequence: ASDTSSETVFGKR [_ASDTSSETVFGK(Succinyl)R_]
- collision cross section [1]: 396.57 ± 0.25 Å²
- collision cross section (charge state: 3, modification: Succinyl): 482.91 ± 3.3 Å²

Sequence: ASDTSSETVFGKR [_ASDTSSETVFGK(Trimethyl (K))R_]
- collision cross section [2]: 414.52 ± 0.6 Å²
- collision cross section [3]: 471.76 ± 2.7 Å²

Sequence: ASDTSSETVFGKR [_ASDTSSETVFGK(hydroxyisobutyryl)R_]
- collision cross section [4]: 403.06 ± 1.1 Å²
- collision cross section (charge state: 3, modification: hydroxyisobutyryl): 485.06 ± 0.47 Å²

Sequence: ASEALLKQLK [_ASEALLK(Acetyl (K))QLK_]
- collision cross section [5]: 373.11 ± 0.4 Å²

Sequence: ASEALLKQLK [_ASEALLK(Biotin)QLK_]
- collision cross section [6]: 396.36 ± 2.2 Å²

Sequence: ASEALLKQLK [_ASEALLK(Butyryl)QLK_]
- collision cross section [7]: 379.45 ± 0.72 Å²

Sequence: ASEALLKQLK [_ASEALLK(Crotonyl)QLK_]
- collision cross section [8]: 379.57 ± 1.1 Å²

Sequence: ASEALLKQLK [_ASEALLK(Dimethyl (K))QLK_]
- collision cross section [9]: 366.02 ± 0.28 Å²
- collision cross section [10]: 439.24 ± 2.8 Å²

Sequence: ASEALLKQLK [_ASEALLK(Formyl)QLK_]
- collision cross section [11]: 369.4 ± 0.89 Å²

Sequence: ASEALLKQLK [_ASEALLK(Gluratylation)QLK_]
- collision cross section [12]: 377.97 ± 0.1 Å²

Sequence: ASEALLKQLK [_ASEALLK(GlyGly (K))QLK_]
- collision cross section [13]: 378.14 ± 0.54 Å²
- collision cross section [14]: 443.25 ± 0.74 Å²

Sequence: ASEALLKQLK [_ASEALLK(Malonyl)QLK_]
- collision cross section [15]: 374.73 ± 0.63 Å²

Sequence: ASEALLKQLK [_ASEALLK(Methyl (K))QLK_]
- collision cross section [16]: 369.33 ± 0.7 Å²
- collision cross section [17]: 450.1 ± 3.1 Å²

Sequence: ASEALLKQLK [_ASEALLK(Propionyl)QLK_]
- collision cross section (charge state: 2, modification: Propionyl): 375.9 ± 0.65 Å²

Sequence: ASEALLKQLK [_ASEALLK(Succinyl)QLK_]
- collision cross section [1]: 374.59 ± 0.24 Å²

Sequence: ASEALLKQLK [_ASEALLK(Trimethyl (K))QLK_]
- collision cross section [2]: 371.28 ± 0.027 Å²
- collision cross section [3]: 439.12 ± 1.8 Å²

Sequence: ASEALLKQLK [_ASEALLK(hydroxyisobutyryl)QLK_]
- collision cross section [4]: 382.21 ± 0.28 Å²

Sequence: ASNAAVKLAESK [_ASNAAVK(Acetyl (K))LAESK_]
- collision cross section [5]: 371.36 ± 0.81 Å²

Sequence: ASNAAVKLAESK [_ASNAAVK(Biotin)LAESK_]
- collision cross section [6]: 402.96 ± 11 Å²
- collision cross section [18]: 464.87 Å²

Sequence: ASNAAVKLAESK [_ASNAAVK(Butyryl)LAESK_]
- collision cross section [7]: 375.52 ± 1.2 Å²

Sequence: ASNAAVKLAESK [_ASNAAVK(Crotonyl)LAESK_]
- collision cross section [8]: 375.99 ± 0.26 Å²

Sequence: ASNAAVKLAESK [_ASNAAVK(Dimethyl (K))LAESK_]
- collision cross section [9]: 387.86 ± 0.56 Å²
- collision cross section [10]: 452.98 ± 1.6 Å²

Sequence: ASNAAVKLAESK [_ASNAAVK(Formyl)LAESK_]
- collision cross section [11]: 365.07 ± 0.39 Å²

Sequence: ASNAAVKLAESK [_ASNAAVK(Gluratylation)LAESK_]
- collision cross section [12]: 379.86 ± 0.1 Å²

Sequence: ASNAAVKLAESK [_ASNAAVK(GlyGly (K))LAESK_]
- collision cross section [13]: 395.25 ± 1.5 Å²
- collision cross section [14]: 457.62 ± 1.1 Å²

Sequence: ASNAAVKLAESK [_ASNAAVK(Malonyl)LAESK_]
- collision cross section [15]: 371.16 ± 0.62 Å²

Sequence: ASNAAVKLAESK [_ASNAAVK(Methyl (K))LAESK_]
- collision cross section [16]: 380.84 ± 0.65 Å²
- collision cross section [17]: 450.44 ± 4.8 Å²

Sequence: ASNAAVKLAESK [_ASNAAVK(Succinyl)LAESK_]
- collision cross section [1]: 372.84 ± 0.87 Å²

Sequence: ASNAAVKLAESK [_ASNAAVK(Trimethyl (K))LAESK_]
- collision cross section [2]: 392.01 ± 0.62 Å²
- collision cross section [3]: 456.46 ± 2.4 Å²

Sequence: ASNAAVKLAESK [_ASNAAVK(hydroxyisobutyryl)LAESK_]
- collision cross section [4]: 376.83 ± 0.8 Å²

Sequence: ASPPLFQSR [_ASPPLFQS(HexNAc (ST))R_]
- collision cross section [19]: 363.62 ± 0.64 Å²

Sequence: ASTPGAAAQIQEVK [_AS(HexNAc (ST))TPGAAAQIQEVK_]
- collision cross section [19]: 409.94 ± 0.76 Å²

Sequence: ATAVVDGAFK [_AT(HexNAc (ST))AVVDGAFK_]
- collision cross section [19]: 362.47 ± 0.64 Å²

Sequence: ATVASSTQKFQDLGVK [_ATVASSTQK(Acetyl (K))FQDLGVK_]
- collision cross section [5]: 445.22 ± 2.2 Å²
- collision cross section (charge state: 3, modification: Acetyl (K)): 493.63 ± 0.33 Å²

Sequence: ATVASSTQKFQDLGVK [_ATVASSTQK(Biotin)FQDLGVK_]
- collision cross section [6]: 460.81 ± 1.3 Å²
- collision cross section [18]: 516.43 ± 0.96 Å²

Sequence: ATVASSTQKFQDLGVK [_ATVASSTQK(Butyryl)FQDLGVK_]
- collision cross section [7]: 453.04 ± 1.1 Å²
- collision cross section (charge state: 3, modification: Butyryl): 495.56 ± 1.9 Å²

From the supplement of paper PMC10598134
